# Experimental data published in EP2506881B1.
# Assays:
# Trop-2 (human) [1] = target: Trop-2 (human) (UniProt P09758); test: cell-based or functional assay
# Trop-2 (human) [2] = target: Trop-2 (human) (UniProt P09758); test: ELISA on Trop-2-expressing cell lines PC-3 and Calu-3
# Trop-2 (human) [3] = target: Trop-2 (human) (UniProt P09758); test: ELISA on Trop-2-expressing cell lines PC-3 and Calu-3, apparent KD
# Chain of UniProt P09758 (P09758 27-323): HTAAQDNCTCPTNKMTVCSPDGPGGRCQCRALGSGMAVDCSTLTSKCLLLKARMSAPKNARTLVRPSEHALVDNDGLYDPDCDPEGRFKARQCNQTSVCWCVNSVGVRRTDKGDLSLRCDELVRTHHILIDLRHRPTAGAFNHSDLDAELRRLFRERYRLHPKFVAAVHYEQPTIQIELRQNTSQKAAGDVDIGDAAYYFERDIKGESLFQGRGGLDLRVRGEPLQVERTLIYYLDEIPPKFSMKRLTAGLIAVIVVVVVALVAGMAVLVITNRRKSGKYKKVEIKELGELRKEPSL
Molecule,"EC50, MTS cell proliferation assay, Calu-3 cells (Trop-2 (human) [1]) [nM]","EC50, MTS cell proliferation assay, MDA-MB-468 cells (Trop-2 (human) [1]) [nM]","EC50, MTS cell proliferation assay, ME-180 cells (Trop-2 (human) [1]) [nM]","EC50, MTS cell proliferation assay, T-47D cells (Trop-2 (human) [1]) [nM]",fold of apparent KD against hRS7 (Trop-2 (human) [2]) [fold],Kd (Trop-2 (human) [3]) [nM]
2L-Rap(Q)-hRS7 (from UniProt P22069 1-104),8.5,3.8,1.5,2,2,0.28
"humanized RS7 anti-Trop-2 antibody (hRS7 IgG) (antibody, INN chains, looked up, V domains shown, IgG) VH: QVQLQQSGSELKKPGASVKVSCKASGYTFTNYGMNWVKQAPGQGLKWMGWINTYTGEPTYTDDFKGRFAFSLDTSVSTAYLQISSLKADDTAVYFCARGGFGSSYWYFDVWGQGSLVTVSS VL: DIQLTQSPSSLSASVGDRVSITCKASQDVSIAVAWYQQKPGKAPKLLIYSASYRYTGVPDRFSGSGSGTDFTLTISSLQPEDFAVYYCQQHYITPLTFGAGTKVEIK",–,–,–,–,–,0.14
